Laboratory results taken from article PMC7469494 (Autophagy, 2019).

Molecular target: the molecule itself
Assay: SAXS

B1: Vac8[40–578] (domain or fragment, S. cerevisiae, UniProt P39968 40-578, looked up)
chain: QLDFYSGGPLKALTTLVYSDNLNLQRSAALAFAEITEKYVRQVSREVLEPILILLQSQDPQIQVAACAALGNLAVNNENKLLIVEMGGLEPLINQMMGDNVEVQCNAVGCITNLATRDDNKHKIATSGALIPLTKLAKSKHIRVQRNATGALLNMTHSEENRKELVNAGAVPVLVSLLSSTDPDVQYYCTTALSNIAVDEANRKKLAQTEPRLVSKLVSLMDSPSSRVKCQATLALRNLASDTSYQLEIVRAGGLPHLVKLIQSDSIPLVLASVACIRNISIHPLNEGLIVDAGFLKPLVRLLDYKDSEEIQCHAVSTLRNLAASSEKNRKEFFESGAVEKCKELALDSPVSVQSEISACFAILALADVSKLDLLEANILDALIPMTFSQNQEVSGNAAAALANLCSRVNNYTKIIEAWDRPNEGIRGFLIRFLKSDYATFEHIALWTILQLLESHNDKVEDLVKNDDDIINGVRKMADVTFERLQRSGIDVKNPGSNNNPSSNDNNSNNNDTGSEHQPVEDASLELYNITQQILQFLH
binding result: binds
